Measured values published in publication doi:10.1101/577460 (bioRxiv, 2019).
Each block holds one binder with its values, some of them ahead of it.

What was measured:
full-length human CHMP7 = target: T1, full-length human CHMP7 (human, UniProt Q8WUX9 1-453); assay: cross-linking
T1 sequence (looked up): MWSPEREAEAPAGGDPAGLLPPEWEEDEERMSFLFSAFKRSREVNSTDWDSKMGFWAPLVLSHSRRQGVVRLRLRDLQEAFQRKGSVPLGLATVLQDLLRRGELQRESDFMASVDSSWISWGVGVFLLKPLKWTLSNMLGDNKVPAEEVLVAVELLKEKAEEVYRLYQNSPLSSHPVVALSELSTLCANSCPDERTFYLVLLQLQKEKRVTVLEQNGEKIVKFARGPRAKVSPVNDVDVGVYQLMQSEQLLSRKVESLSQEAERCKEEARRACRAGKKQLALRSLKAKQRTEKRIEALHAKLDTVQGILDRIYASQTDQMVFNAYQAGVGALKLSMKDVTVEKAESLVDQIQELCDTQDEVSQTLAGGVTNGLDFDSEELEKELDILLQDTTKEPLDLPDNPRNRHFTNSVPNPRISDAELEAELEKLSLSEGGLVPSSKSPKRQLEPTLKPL

negative stain EM = target: the molecule itself; assay: negative stain EM
co-sedimentation = target: the molecule itself; assay: co-sedimentation
[1] = target: T2, barrier-to-autointegration factor (BAF) (human, UniProt O75531 1-89); assay: SEC
T2 sequence (looked up): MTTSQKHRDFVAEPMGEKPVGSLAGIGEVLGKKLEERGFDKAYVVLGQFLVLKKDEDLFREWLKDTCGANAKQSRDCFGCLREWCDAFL

binding result (full-length human CHMP7): binds
B1: His6-SUMO-LEM2_(395-503) (domain or fragment, human, UniProt Q8NC56 395-503, looked up)
chain: ILLKYRWRKLEEEEQAMYEMVKKIIDVVQDHYVDWEQDMERYPYVGILHVRDSLIPPQSRRRMKRVWDRAVEFLASNESRIQTESHRVAGEDMLVWRWTKPSSFSDSER

B2: CHMP7_(229-453) (domain or fragment, human, UniProt Q8WUX9 229-453, looked up)
chain: AKVSPVNDVDVGVYQLMQSEQLLSRKVESLSQEAERCKEEARRACRAGKKQLALRSLKAKQRTEKRIEALHAKLDTVQGILDRIYASQTDQMVFNAYQAGVGALKLSMKDVTVEKAESLVDQIQELCDTQDEVSQTLAGGVTNGLDFDSEELEKELDILLQDTTKEPLDLPDNPRNRHFTNSVPNPRISDAELEAELEKLSLSEGGLVPSSKSPKRQLEPTLKPL
binding result (negative stain EM): binds

B3: CHMP7_(R270E + I312E) (natural protein, human, UniProt Q8WUX9 1-453, looked up)
chain: MWSPEREAEAPAGGDPAGLLPPEWEEDEERMSFLFSAFKRSREVNSTDWDSKMGFWAPLVLSHSRRQGVVRLRLRDLQEAFQRKGSVPLGLATVLQDLLRRGELQRESDFMASVDSSWISWGVGVFLLKPLKWTLSNMLGDNKVPAEEVLVAVELLKEKAEEVYRLYQNSPLSSHPVVALSELSTLCANSCPDERTFYLVLLQLQKEKRVTVLEQNGEKIVKFARGPRAKVSPVNDVDVGVYQLMQSEQLLSRKVESLSQEAERCKEEAERACRAGKKQLALRSLKAKQRTEKRIEALHAKLDTVQGILDREYASQTDQMVFNAYQAGVGALKLSMKDVTVEKAESLVDQIQELCDTQDEVSQTLAGGVTNGLDFDSEELEKELDILLQDTTKEPLDLPDNPRNRHFTNSVPNPRISDAELEAELEKLSLSEGGLVPSSKSPKRQLEPTLKPL
binding result (co-sedimentation): binds

B4: CHMP7_(R270E + V339D) (natural protein, human, UniProt Q8WUX9 1-453, looked up)
chain: MWSPEREAEAPAGGDPAGLLPPEWEEDEERMSFLFSAFKRSREVNSTDWDSKMGFWAPLVLSHSRRQGVVRLRLRDLQEAFQRKGSVPLGLATVLQDLLRRGELQRESDFMASVDSSWISWGVGVFLLKPLKWTLSNMLGDNKVPAEEVLVAVELLKEKAEEVYRLYQNSPLSSHPVVALSELSTLCANSCPDERTFYLVLLQLQKEKRVTVLEQNGEKIVKFARGPRAKVSPVNDVDVGVYQLMQSEQLLSRKVESLSQEAERCKEEAERACRAGKKQLALRSLKAKQRTEKRIEALHAKLDTVQGILDRIYASQTDQMVFNAYQAGVGALKLSMKDDTVEKAESLVDQIQELCDTQDEVSQTLAGGVTNGLDFDSEELEKELDILLQDTTKEPLDLPDNPRNRHFTNSVPNPRISDAELEAELEKLSLSEGGLVPSSKSPKRQLEPTLKPL
binding result (co-sedimentation): binds

binding result [1]: binds
B5: LEM2_(1-72) (domain or fragment, human, UniProt Q8NC56 1-72, looked up)
chain: MAGLSDLELRRELQALGFQPGPITDTTRDVYRNKLRRLRGEARLRDEERLREEARPRGEERLREEARLREDA
